# Source: patent US20150030595A1 (ANTIBODY AND RECEPTOR THERAPEUTICS, published 2015)
# T1: EGF5-6-Fc (DLK1 deletion mutant without the 1st to 4th EGF-like repeat domains) (human, UniProt P80370 170-302)
# T1 construct: also called 5M-Fc; not shown: human antibody Fc region of the pYK602-Fc vector and any SfiI-junction residues
# T1 sequence: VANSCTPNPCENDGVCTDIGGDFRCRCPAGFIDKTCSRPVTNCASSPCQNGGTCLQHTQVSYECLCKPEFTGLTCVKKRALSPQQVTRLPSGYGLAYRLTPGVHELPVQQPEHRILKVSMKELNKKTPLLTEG
# T2: C-terminally active myostatin (R&D systems) (UniProt O14793 267-375, limits assumed)
# T2 construct: mature
# T2 sequence (looked up): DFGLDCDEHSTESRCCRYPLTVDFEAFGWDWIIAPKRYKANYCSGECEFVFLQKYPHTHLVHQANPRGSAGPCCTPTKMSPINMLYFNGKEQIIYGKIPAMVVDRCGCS
# B1: ACVR2B-Fc fusion protein (Fc fusion, not shown: a dimerising Fc or GST; small tags and cut ends)
# chain: SGRGEAETRECIYYNANWELERTNQSGLERCEGEQDKRLHCYASWRNSSGTIELVKKGCWLDDFNCYDRQECVATEENPQVYFCCCEGNFCNERFTHLPEAGGPEVTYEPPPTAPTLLT
# notes: also called water-soluble ACVR2B
# B2: JM-Fc (juxtamembrane region of DLK1, all six EGF-like repeat domains deleted) (Fc fusion)
# chain: KKRALSPQQVTRLPSGYGLAYRLTPGVHELPVQQPEHRILKVSMKELNKKTPLLTEG
# notes: also called juxtamembrane region (JM); not shown: human antibody Fc of the pYK602-Fc vector and the SfiI junction residues between JM and Fc
# B3: ACVR1A-Fc (Fc fusion, UniProt Q04771 21-124, looked up)
# chain: MEDEKPKVNPKLYMCVCEGLSCGNEDHCEGQQCFSSLSINDGFHVYQKGCFQVYEQGKMTCKTPPSPGQAVECCQGDWCNRNITAQLPTKGKSFPGTQNFHLEV
# notes: Control; origin not described; not shown: Fc; not described
# B4: DLK1-Fc fusion protein (Fc fusion, not shown: a dimerising Fc or GST)
# chain: AECFPACNPQNGFCEDDNVCRCQPGWQGPLCDQCVTSPGCLHGLCGEPGQCICTDGWDGELCDRDVRACSSAPCANNGTCVSLDDGLYECSCAPGYSGKDCQKKDGPCVINGSPCQHGGTCVDDEGRASHASCLCPPGFSGNFCEIVANSCTPNPCENDGVCTDIGGDFRCRCPAGFIDKTCSRPVTNCASSPCQNGGTCLQHTQVSYECLCKPEFTGLTCVKKRALSPQQVTRLPSGYGLAYRLTPGVHELPVQQPEHRILKVSMKELNKKTPLLTEG
# notes: also called DLK-Fc
# B5: human antibody B09 (full-length IgG) (antibody, V domains shown)
# VH: QMQLVESGGRLVRPGGSLRLSCAASGFPFTSYAMNWVRQTPGKGLEWVSTITATSGKTYYADSVKGRFTISRDNSRNTLFLQMNSLRAEDTAVYYCVRGESCSGGACSDFDYWGQGALVTVSS
# VL: QLVLTQPASVSGSPGQSVTISCTGTSSDIGRYNRVSWYQHHPGKAPKLILNDVTTRPSGFSNRFSGSKSGNTASLTISGLQAEDEADYSCGSYAGSYTYVFGTGTKVTVL
# notes: Converted into full-length IgG with pNATAB H and pNATAB L vectors; also called B09 antibody; DLK1 antibody B09
# What was measured:
# [1] = target: T1, EGF5-6-Fc (DLK1 deletion mutant without …); test: SPR (ProteOn XPR36), ACVR2B-Fc coated on the chip, Fc channel as reference
# Protocol: (§1) This experiment was performed using a ProteOn XPR36 instrument (Bio-Rad). First, a sensor chip (GLC) was activated by reacting 0.1 M EDC and 0.025 M sulfo-NHS (Bio-Rad) for 60 seconds. […] The coating procedure was completed by allowing 1 M ethanolamine-HCl) (pH 8.5) to flow at the coated chip for 200 seconds. To test the bound proteins, the chip was rotated at an angle of 90°, and stabilized by allowing DPBST (PBS with 0.005% Tween 20) to flow on the chip for 30 minutes.
# [2] = target: T2, C-terminally active myostatin (R&D …); test: ELISA, coating 1 ug/ml myostatin, binding 10 nM, anti-human Fc HRP
# [3] = target: B1; test: SPR (ProteOn XPR36), ACVR2B-Fc coated on the chip, Fc channel as reference
# Protocol: as §1
# [4] = target: T2, C-terminally active myostatin (R&D …); test: ELISA on coated myostatin (1 ug/ml), Fc-HRP
# [5] = target: B1; test: SPR (ProteOn XPR36), ACVR2B-Fc coated
# Protocol: as §1
# [6] = target: T2, C-terminally active myostatin (R&D …); test: ELISA on coated myostatin, one site binding (hyperbola) fit
# Protocol: An immunoplate was coated overnight with 1 μg/ml of C-terminally active myostatin (R&D systems) at 4° C., washed three times with 0.05% PBST Tween 20, and then blocked with 4% skim milk/0.05% PBST Tween 20 at room temperature for 30 minutes. […] Finally, when the reaction was blocked with 2.5 M H₂SO₄, the optical densities were measured and analyzed at 420 nm.
# Based on the experiment, a KD value was also determined by analyzing one site binding (hyperbola) using a GraphPad Reism 4 program.
# [7] = target: B1; test: SPR (ProteOn XPR36), ACVR2B-Fc coated, in the presence of B09
# [8] = target: B4; test: SPR (ProteOn XPR36)
binder,measurement,setting,value
B1,binding result,[1],binds
B2,binding result,[2],binds
same,binding result,[3],no binding
B3,binding result,[4],no binding (tested: 1 nM)
B4,Kd,[5],1.31 nM
same,koff,[5],0.000434 s⁻¹
same,kon,[5],331000 M⁻¹ s⁻¹
same,Kd,[6],22.8 nM
same,Kd,[7],0.407 nM
same,koff,[7],0.000255 s⁻¹
same,kon,[7],626000 M⁻¹ s⁻¹
B5,Kd,[8],0.0109 nM
same,koff,[8],6.49e-05 s⁻¹
same,kon,[8],3.41e+06 M⁻¹ s⁻¹
